Columns and labels:
[1] = molecular target: T1, soluble human PD-1 (the extracellular domain of human PD-1 fused to a His tag) (human, UniProt Q15116 25-170); experiment: Biacore, mAb captured on Protein A, analyte shPD-1 His
T1 construct: also called shPD-1 His; shPD-1-His; not shown: His tag

[2] = molecular target: T1, soluble human PD-1 (the extracellular …); experiment: ELISA: shPD-1 His coated at 1 ug/ml, goat anti-mouse (H+L)-HRP, RLU
[3] = molecular target: T2, soluble cynomolgus monkey PD-1 (the extracellular domain of cynomolgus monkey PD-1 fused to a human Fc Region) (cynomolgus monkey, UniProt B0LAJ3 25-170); experiment: ELISA: scyno-PD-1-TEV-Fc coated at 0.5 ug/ml, goat anti-mouse (H+L)-HRP, RLU
T2 construct: also called scyno-PD1 Fc; scynoPD-1-hFc; not shown: Human Fc Region and any linker or cleavage site between the extracellular domain and the Fc

[4] = molecular target: T3, soluble cynomolgus monkey PD-1 (scyno PD-1 hFc) cleaved to remove Fc portion (cynomolgus monkey, UniProt B0LAJ3 25-170); experiment: Biacore, mAb captured on Protein A, analyte scyno PD-1 hFc cleaved of Fc
[5] = molecular target: T3, soluble cynomolgus monkey PD-1 (scyno …); experiment: Biacore, mAb captured on F(ab)2 goat anti-human Fc, analyte scyno PD-1 hFc cleaved of Fc
[6] = molecular target: T4, human PD-1 expressed on the surface of cells (NSO cells expressing human PD-1; MNFAT-luc2/PD-1 Jurkat cells) (human, UniProt Q15116 21-288); experiment: FACS blocking on NSO cells expressing human PD-1, 1:4 dilutions, MFI; blocked ligand: biotinylated sPD-L2, streptavidin-PE
T4 construct: also called cell surface PD-1; PDCD1 transfected NSO cells expressing PD-1

[7] = molecular target: T4, human PD-1 expressed on the surface of …; experiment: FACS blocking on NSO cells expressing human PD-1, 1:4 dilutions, MFI; blocked ligand: biotinylated sPD-L1, streptavidin-PE
[8] = molecular target: T1, soluble human PD-1 (the extracellular …); experiment: Biacore, mAb captured on F(ab)2 goat anti-human Fc, analyte shPD-1 His
[9] = molecular target: T4, human PD-1 expressed on the surface of …; experiment: FACS saturation binding on NSO cells expressing human PD-1, goat anti-human-APC, MFI, 1:4 dilutions
[10] = molecular target: T5, PD-1 on the surface of CD4+ and CD8+ T cells of cynomolgus monkeys (cynomolgus monkey, UniProt B0LAJ3 25-288); experiment: flow cytometry competition with labeled hPD-1 mAb 7 (1.2) IgG4 (P) on blood of cynomolgus monkeys given 10 mg/kg
T5 construct: In vivo occupancy read by flow cytometry; also called PD-1+/CD4+ and PD-1+/CD8+ cells

[11] = molecular target: T4, human PD-1 expressed on the surface of …; experiment: FACS: inhibition of sPD-L2 binding to PD-1 on NSO cells; SM; SD 0.2563
[12] = molecular target: T4, human PD-1 expressed on the surface of …; experiment: FACS: inhibition of sPD-L1 binding to PD-1 on NSO cells; SM; SD 0.1668
[13] = molecular target: T4, human PD-1 expressed on the surface of …; experiment: FACS saturation binding to NSO cells expressing PD-1; SM; SD 0.8112
[14] = molecular target: T4, human PD-1 expressed on the surface of …; experiment: FACS: biotinylated sPD-L2 on NSO cells expressing human PD-1, streptavidin-PE, MFI
[15] = molecular target: T1, soluble human PD-1 (the extracellular …); experiment: ELISA: shPD-1 His coated at 0.5 ug/ml, goat anti-mouse (H+L)-HRP, RLU
[16] = molecular target: T2, soluble cynomolgus monkey PD-1 (the …); experiment: ELISA: scyno-PD-1-TEV-hFc coated at 1 ug/ml, goat anti-mouse (H+L) detection, RLU

B1: PD-1 mAb 2 (antibody, V domains shown)
VH: DVQLVESGGGLVQPGGSRKLSCAASGFVFSSFGMHWVRQAPEKGLEWVAYISSGSMSISYADTVKGRFTVTRDNAKNTLFLQMTSLRSEDTAIYYCASLSDYFDYWGQGTTLTVSS
VL: DVVMSQTPLSLPVSLGDQASISCRSSQSLVHSTGNTYLHWYLQKPGQSPKLLIYRVSNRFSGVPDRFSGSGSGTDFTLKISRVEAEDLGVFFCSQTTHVPWTFGGGTKLEIK
notes: Murine monoclonal antibody
[1]
  Kd: 10.2 nM
[2]
  EC50 (read off the curve): ~0.3 nM
[3]
  EC50 (read off the curve): ~0.3 nM
[4]
  Kd: 14.3 nM

B2: PD-1 mAb 4 (antibody, V domains shown)
VH: DVQLVESGGGLVQPGGSRKLSCAASGFVFSSFGMHWVRQAPEKGLEWVAYISSGSMSISYADTVKGRFTVTRDNAKNTLFLQMTSLRSEDTAIYYCASLTDYFDYWGQGTTLTVSS
VL: DVVMSQTPLSLPVSLGDQASISCRSSQSLVHSTGNTYFHWYLQKPGQSPKLLIYRVSNRFSGVPDRFSGSGSGTDFTLKISRVEAEDLGVYFCSQTTHVPWTFGGGTKLEIK
notes: Murine monoclonal antibody
[2]
  EC50 (read off the curve): ~0.3 nM
[3]
  EC50 (read off the curve): ~0.3 nM

B3: hPD-1 mAb 9 (1.1) IgG4 (P) (antibody)
heavy: not shown
light: DIQMTQSPSSLSASVGDRVTITCRASENIYSYLAWYQQKPGKAPKLLIYNAKTLAAGVPSRFSGSGSGTDFTLTISSLQPEDFATYYCQHHYAVPWTFGQGTKLEIKRTVAAPSVFIFPPSDEQLKSGTASVVCLLNNFYPREAKVQWKVDNALQSGNSQESVTEQDSKDSTYSLSSTLTLSKADYEKHKVYACEVTHQGLSSPVTKSFNRGEC
notes: also called hPD-1 mAb 9 IgG4 (P)
[5]
  Kd: 15.1 nM
[6]
  IC50 (read off the curve): ~0.1 ug/test
[7]
  IC50 (read off the curve): ~0.03 ug/test
[8]
  Kd: 9.5 nM
[9]
  EC50 (read off the curve): ~0.5 µg/mL

B4: hPD-1 mAb 9 (1.1) IgG1 (AA) (antibody)
heavy: not shown
light: DIQMTQSPSSLSASVGDRVTITCRASENIYSYLAWYQQKPGKAPKLLIYNAKTLAAGVPSRFSGSGSGTDFTLTISSLQPEDFATYYCQHHYAVPWTFGQGTKLEIKRTVAAPSVFIFPPSDEQLKSGTASVVCLLNNFYPREAKVQWKVDNALQSGNSQESVTEQDSKDSTYSLSSTLTLSKADYEKHKVYACEVTHQGLSSPVTKSFNRGEC
notes: also called hPD-1 mAb 9 IgG1 (AA)
[5]
  Kd: 9.3 nM
[6]
  IC50 (read off the curve): ~0.1 ug/test
[7]
  IC50 (read off the curve): ~0.06 ug/test
[8]
  Kd: 10.9 nM
[9]
  EC50 (read off the curve): ~0.2 µg/mL

B5: PD-1 mAb 1 (antibody, V domains shown)
VH: DVQLQESGPGRVKPSQSLSLTCTVTGFSITNDYAWNWIRQFPGNKLEWMGHITYSGSTSYNPSLKSRISITRDTSKNHFFLQLSSVTPEDTATYYCARDYGSGYPYTLDYWGQGTSVTVSS
VL: QIVLTQSPALMSASPGEKVTMTCSATSIVSYVYWYQQKPGSSPQPWIYLTSNLASGVPARFSGSGSGTSYSLTISSMEAEDAATYYCQQWSDNPYTFGGGTKLEIK
notes: Murine monoclonal antibody
[2]
  EC50 (read off the curve): ~0.3 nM
[3]
  EC50 (read off the curve): ~0.3 nM

B6: PD-1 mAb A IgG4 (P) (antibody, V domains shown)
VH: QVQLVESGGGVVQPGRSLRLDCKASGITFSNSGMHWVRQAPGKGLEWVAVIWYDGSKRYYADSVKGRFTISRDNSKNTLFLQMNSLRAEDTAVYYCATNDDYWGQGTLVTVSS
VL: EIVLTQSPATLSLSPGERATLSCRASQSVSSYLAWYQQKPGQAPRLLIYDASNRATGIPARFSGSGSGTDFTLTISSLEPEDFAVYYCQQSSNWPRTFGQGTKVEIK
[5]
  Kd: 6 nM
[10]
  PD-1 binding on CD4+ and CD8+ T cells (% bound, in vivo): ≥ 80%

B7: PD-1 mAb B IgG4 (P) (antibody, V domains shown)
VH: QVQLVQSGVEVKKPGASVKVSCKASGYTFTNYYMYWVRQAPGQGLEWMGGINPSNGGTNFNEKFKNRVTLTTDSSTTTAYMELKSLQFDDTAVYYCARRDYRFDMGFDYWGQGTTVTVSS
VL: EIVLTQSPATLSLSPGERATLSCRASKGVSTSGYSYLHWYQQKPGQAPRLLIYLASYLESGVPARFSGSGSGTDFTLTISSLEPEDFAVYYCQHSRDLPLTFGGGTKVEIK
[5]
  Kd: 4 nM
[10]
  PD-1 binding on CD4+ and CD8+ T cells (% bound, in vivo): ≥ 80%

B8: hPD-1 mAb 7 (1.2) IgG4 (P) (antibody)
heavy: not shown
light: EIVLTQSPATLSLSPGERATLSCRASESVDNYGMSFMNWFQQKPGQPPKLLIHAASNQGSGVPSRFSGSGSGTDFTLTISSLEPEDFAVYFCQQSKEVPYTFGGGTKVEIKRTVAAPSVFIFPPSDEQLKSGTASVVCLLNNFYPREAKVQWKVDNALQSGNSQESVTEQDSKDSTYSLSSTLTLSKADYEKHKVYACEVTHQGLSSPVTKSFNRGEC
notes: also called MGD012
[11]
  IC50: 1040 nM
[12]
  IC50: 519 nM
[5]
  Kd: 4.6 nM
[10]
  PD-1 binding on CD4+ and CD8+ T cells (% bound, in vivo): ≥ 80%
[13]
  EC50: 1210 nM
[6]
  IC50 (read off the curve): ~0.02 ug/test
[7]
  IC50 (read off the curve): ~0.01 ug/test
[8]
  Kd: 1.5 nM
[9]
  EC50 (read off the curve): ~0.1 µg/mL

B9: biotinylated-soluble human PD-L2-muIgFc fusion protein (Ancell Cat #573-030) (Fc fusion, UniProt Q9BQ51 20-220, looked up)
chain: LFTVTVPKELYIIEHGSNVTLECNFDTGSHVNLGAITASLQKVENDTSPHRERATLLEEQLPLGKASFHIPQVQVRDEGQYQCIIIYGVAWDYKYLTLKVKASYRKINTHILKVPETDEVELTCQATGYPLAEVSWPNVSVPANTSHSRTPEGLYQVTSVLRLKPPPGRNFSCVFWNTHVRELTLASIDLQSQMEPRTHPT
modifications: biotinylated (site not stated)
notes: Bought reagent; also called shPD-L2; sPD-L2; not shown: murine Ig Fc
[14]
  binding result: binds

B10: PD-1 mAb 6 (antibody, V domains shown)
VH: EVKLVESGGGLVNPGGSLKLSCAASGFTFSSYGMSWVRQTPEKRLEWVATISGGGSDTYYPDSVKGRFTISRDNAKNNLYLQMSSLRSEDTALYYCARQKATTWFAYWGQGTLVTVST
VL: not shown
notes: Murine monoclonal antibody
[3]
  binding result: binds
[15]
  EC50 (read off the curve): ~0.3 nM

B11: PD-1 mAb 9 (antibody, V domains shown)
VH: EVMLVESGGGLVKPGGSLKLSCAASGFTFSSYLVSWVRQTPEKRLEWVATISGGGGNTYYSDSVKGRFTISRDNAKNTLYLQISSLRSEDTALYYCARYGFDGAWFAYWGQGTLVTVSS
VL: DIQMTQSPASLSASVGDIVTITCRASENIYSYLAWYQQKQEKSPQLLVYNAKTLAAGVPSRFSGSGSGTQFSLTINSLQPEDFGNYYCQHHYAVPWTFGGGTRLEIT
notes: Murine monoclonal antibody
[1]
  Kd: 9.8 nM
[2]
  EC50 (read off the curve): ~0.4 nM
[16]
  binding result: binds
[4]
  Kd: 72.7 nM

B12: PD-1 mAb 5 (antibody, V domains shown)
VH: QVQLQQPGVELVRPGASVKLSCKASGYSFTAYWMNWMKQRPGQGLEWIGVIHPSDSETWLNQKFKDKATLTVDKSSSTAYMQLISPTSEDSAVYYCAREHYGSSPFAYWGQGTLVTVSA
VL: not shown
notes: Murine monoclonal antibody
[3]
  binding result: binds
[15]
  EC50 (read off the curve): ~0.3 nM

B13: PD-1 mAb 7 (antibody, V domains shown)
VH: QVQLQQPGAELVRPGASVKLSCKASGYSFTSYWMNWVKQRPGQGLEWIGVIHPSDSETWLDQKFKDKATLTVDKSSTTAYMQLISPTSEDSAVYYCAREHYGTSPFAYWGQGTLVTVSS
VL: not shown
notes: Murine monoclonal antibody
[1]
  Kd: 1.3 nM
[3]
  EC50 (read off the curve): ~0.3 nM
[15]
  EC50 (read off the curve): ~0.2 nM
[4]
  Kd: 3.5 nM

Reference: patent US12534531 (MacroGenics, dated 2026)
